Results: US20140289906A1, “Compositions Having Dicamba Decarboxylase Activity and Methods of Use” (priority 2013, published 2014)
Positions count from the first letter of the chain named. Names may count otherwise.

B1: 1 (protein, listed as Rhizobium sp.)
chain: MAQGKVALEEHFAIPETLQDSAGFVPGDYWKELQHRLLDIQDTRLKLMDAHGIETMILSLNAPAVQAIPDRRKAIEIARRANDVLAEECAKRPDRFLAFAALPLQDPDAATEELQRCVNDLGFVGALVNGFSQEGDGQTPLYYDLPQYRPFWGEVEKLDVPFYLHPRNPLPQDSRIYDGHPWLLGPTWAFAQETAVHALRLMASGLFDEHPRLNIILGHMGEGLPYMMWRIDHRNAWVKLPPRYPAKRRFMDYFNENFHITTSGNFRTQTLIDAILEIGADRILFSTDWPFENIDHASDWFNATSIAEADRVKIGRTNARRLFKLDGA
B2: 117 (protein)
chain: MAKKPRIDMHSHFFPRISEQEAAKFDANHAPWLQVSAKGDTGSIMMGKNNFRPVYQALWDPAFRIEEMDAQGVDVQVTCATPVMFGYTWEANKAAQWAERMNDFALEFAAHNPQRIKVLAQVPLQDLDLACKEASRAVAAGHLGIQIGNHLGDKDLDDATLEAFLTHCANEDIPILVHPWDMMGGQRMKKWMLPVLVAAPAEVQLAILSLILSGAFERIPKSLKICFAGGGGSFAFLLGIVDLAWRHRDIVREDCPRPPSEYVDRFFVDSLVFNPGALELLVSVMGEDRVMLGSDYPFPTGEQKIGGLVLSSNLGESAKDKIISGNASKFFNINV
modifications: Dicamba decarboxylase variant clone DC.5.008
B3: 118 (protein)
chain: MAKKPRIDMHSHFFPRISEQEAAKFDANHAPWLQVSAKGDTGSIMMGKNNFQPVYQALWDPAFRIEEMDAQGVDVQVTCATPVMFGYTWEANKAAQWAERMNDFALEFAAHNPQRIKVLAQVPLQDLDLACKEASRAVAAGHLGIQIGNHLGDKDLDDATLEAFLTHCANEDIPILVHGTDMMGGQRMKKWGLPWLVALAAEVQLAILSLILSGAFERIPKSLKICFSHGGGSFAFLLGLVDEAWRHVDIVREDCPRPPSEYVDRFFVDSVGNPGALELLVSVMGEDRVMLGSDYPHTTGEQKIGGLVLSSNLGESAKDKIISGNASKFFNINV
modifications: Dicamba decarboxylase variant clone DC.5.033
B4: 119 (protein)
chain: B3 chain with T180W, P194Y, L199H, A200H, L237T, L240W, H297L
modifications: Dicamba decarboxylase variant cloneDC.5.034
B5: L38I: point mutation of SEQ ID NO:109 (protein)
chain: B1 chain with L38I, N235V
modifications: Dicamba decarboxylase variant clone DC.4.032
B6: G52E: point mutation of SEQ ID NO:109 (protein)
chain: B1 chain with G52E, N235V
modifications: Dicamba decarboxylase variant clone DC.4.032
B7: D42M: point mutation of SEQ ID NO:109 (protein)
chain: B1 chain with D42M, N235V
modifications: Dicamba decarboxylase variant clone DC.4.032
B8: D42S: point mutation of SEQ ID NO:109 (protein)
chain: B1 chain with D42S, N235V
modifications: Dicamba decarboxylase variant clone DC.4.032
B9: D42A: point mutation of SEQ ID NO:109 (protein)
chain: B1 chain with D42A, N235V
modifications: Dicamba decarboxylase variant clone DC.4.032

Experiment: 14C assay: 14CO2 capture from [14C]-carboxyl-labeled dicamba with IPTG-induced recombinant E. coli cells
Conditions: IPTG-induced recombinant E. coli cells; 14CO2 from [14C]-carboxyl-labeled dicamba

Row | Molecule | Dicamba Decarboxylase Activity
1 | B1 | High

Same assay, conditions: among the 108 sequences tested; recombinant E. coli cell assay

Row | Molecule | decarboxylation activity of dicamba
2 | B1 | showed decarboxylation activity of dicamba

Same assay, conditions: dicamba decarboxylation activity

Row | Molecule | Enzymatic Detection level
3 | B1 | High
4 | B2 | High
5 | B3 | High
6 | B4 | High

Experiment: Saturation mutagenesis of SEQ ID NO:109: dicamba decarboxylation activity of point mutants (Table 7)
Conditions: dicamba decarboxylation activity of point mutants of SEQ ID NO: 109 from NNK saturation mutagenesis; 0.7-fold used as cut-off

Row | Molecule | Average Activity (Fold of SEQ ID NO: 109)
7 | B5 | 2.0 Fold of SEQ ID NO: 109
8 | B6 | 3.1 Fold of SEQ ID NO: 109
9 | B7 | 2.4 Fold of SEQ ID NO: 109
10 | B8 | 2.0 Fold of SEQ ID NO: 109
11 | B9 | 2.0 Fold of SEQ ID NO: 109

Same assay, conditions: point mutant of SEQ ID NO:109; dicamba decarboxylation activity relative to the unchanged template

Row | Molecule | Average Activity (Fold of SEQ ID NO: 109)
12 | B5 | 2.0 Fold of SEQ ID NO: 109
13 | B6 | 3.1 Fold of SEQ ID NO: 109
14 | B7 | 2.4 Fold of SEQ ID NO: 109

Experiment: Dicamba decarboxylation activity of computationally designed protein variants and parents (Tables 4, 5)
Conditions: native proteins and designed variants; assay not specified

Row | Molecule | dicamba decarboxylase activity (statement in the description)
15 | B1 | native dicamba decarboxylase activity
16 | B2 | have dicamba decarboxylase activity
17 | B3 | have dicamba decarboxylase activity
18 | B4 | have dicamba decarboxylase activity

Same assay, conditions: parent (SEQ ID NO: 1 or SEQ ID NO: 41) = 100

Row | Molecule | Percent Activity Improvement Over Parent (%)
19 | B1 | 100%

Experiment: GC/MS detection of 2,5-dichloro phenol (2,5-DCP); kinetic determination
Assay type: biochemical
Conditions: purified protein, dicamba
Description: The decarboxylated and demethylated product of dicamba, 2,5-dichloro phenol or 2,5-DCP (FIG. 1E) is measured using a GC/MS analytical procedure with either liquid injection after liquid/liquid extraction using toluene as the extraction solvent or gas injection using head space method. The head space sample analysis is carried out on an Agilent GC/MS system with a 6890A GC, a 5973N MSD and a CTC CombiPAL auto-sampler or with a 7890A GC, a 5975C MSD and an Agilent GC Sampler 80 auto-sampler with Phenomenex ZB-MultiResidue-1 column (30 m length, 0.25 mm diameter, 0.25 um film) or equivalent. GC/MS parameters are: GC inlet temperature, 200° C.; Carry gas, helium in constant flow mode (1.2 mL/min); Oven temperature program, 70° C. for 1 min and then ramp to 275° C. at 40° C./min. […] The reaction vial is transferred to a agitator for incubation at 90° C. for 4 min at 500 rpm. With a syringe preheated at 110° C., 1000 uL of head space is injected with sample fill speed at 100 uL/sec. A 2-mm diameter liner is used in sample inlet. The MS data acquisition is done in SIM (selected ion monitoring) mode. The positive ion at M/Z 162 for the molecular ion of 2,-5-DCP is monitored at retention time of 4.06 min. Solvent delay for MS acquisition is set at 3 min. GC/MS parameters for liquid sample analysis are the same as those for head space analysis, except that the volume of liquid injection is 1 uL.

Row | Molecule | 2,5-DCP product detected
20 | B1 | detected
21 | B2 | not detected
22 | B3 | not detected
23 | B4 | not detected

Experiment: LC-MS/MS detection of 4-chloro-3-methoxy phenol
Assay type: biochemical
Conditions: purified protein, dicamba
Description: The decarboxylated and chloro hydrolyzed product, 4-chloro-3-methoxy phenol (FIG. 1D), is measured using a LC-MS/MS analytical procedure. […] 10 ul is removed from the reaction mixture and mixed with 90 ul pre-chilled methanol followed by centrifugation at 14,000 rpm for 15 min at 4° C. 10 ul of the supernatant is then transferred into 170 ul ddH2O to achieve 5% methanol solution for injection. 50 ul of the prepared sample is injected into a 4000 Q Trap LC-MS/MS system for sample analysis. LC-MS/MS parameters are: Mobile Phase A, 2 mM ammonium acetate in water; Mobile Phase B, 2 mM ammonium acetate in methanol; Column, Aquasil, 100×2.1 mm, 3 μm, C18 column; Flow Rate, 0.6 ml/min. The MS/MS fragment 157/142 which is common to 4-chloro-3-methoxy phenol, 2-chloro-5-methoxy phenol, and 3-chloro-5-methoxy phenol is monitored at a retention time of 2.88 min.

Row | Molecule | 4-chloro-3-methoxy phenol product detected
24 | B1 | detected
25 | B2 | not detected
26 | B3 | not detected
27 | B4 | not detected

Experiment: 14C assay: 14CO2 capture from [14C]-carboxyl-labeled dicamba with purified protein
Assay type: biochemical
Conditions: not given

Row | Molecule | CO2 product detected
28 | B1 | detected
29 | B2 | not detected
30 | B3 | not detected
31 | B4 | not detected

Experiment: GC/MS detection of 2,5-dichloro anisole (2,5-DCA), toluene trapping or head-space
Assay type: biochemical
Conditions: purified protein, dicamba, toluene capturing
Description: Alternatively, dicamba decarboxylase activity can be monitored by measuring decarboxylation products other than CO2 using product detection methods. The decarboxylation product of dicamba, 2,5-dichloro anisole or 2,5-DCA (FIG. 1C), is a volatile compound with a flash point of 21° C. To capture this volatile compound for detection, 140 ul of toluene solution is added on top of 1 ml reaction mixture to form a trapping layer in a 1.5 ml eppendorf tube. […] The reaction is kept still at room temperature overnight before being vortex mixed and centrifuged at 14,000 rpm for 15 minutes. The top toluene phase is carefully removed using a micropipette and transferred into a 12×32 mm polypropylene vial (Vial 11 mm) from MicroLiter Analytical Supplies, Inc. (catalog number 11-5300-100). The vial is sealed with Crimp seal (11 mm with FEP/Nat Rubber) from MicroLiter Analytical Supplies, Inc. (catalog number 11-0020A) using a E-Z Crimper™ 11 mm from Wheaton Inc. 1 ul of the toluene mixture is taken from the sealed vials and injected in splitless mode into a GC/MS system for sample analysis (Agilent GC/MS system with a 6890A GC, a 5973N MSD and a CTC CombiPAL auto-sampler or with a 7890A GC, a 5975C MSD and an Agilent GC Sampler 80 auto-sampler). The GC parameters are: Agilent DB-5MS column (30 m length, 0.25 mm diameter, 0.25 um film) or equivalent; The GC inlet temperature, 250° C.; Carry gas, helium in constant flow mode (1.2 mL/min); The GC oven temperature program, initial temperature at 70° C. for 1 min, ramping to 200° C. at 15° C./min, and then ramping to 250° C. at 30° C./min. MS data acquisition is done in SIM (selected ion monitoring) mode, monitoring the positive ion at M/Z 176 for the molecular ion of […]. The solvent delay for MS acquisition is set at 4 min. Another method for detection of 2,5-DCA is a head-space GC/MS method. Briefly, reaction mixtures in 500 ul reaction volume are prepared in 1.5 ml 12×32 mm glass vials (Microliter Analytical Supplies, Cat#11-1200) for head space analysis. Glass vials are sealed with magnetic cap from MicroLiter Analytical Supplies, Inc. (catalog number 11-0030AT) using a E-Z Crimper™ 11 mm from Wheaton Industries Inc. The reaction is carried out at room temperature for various amount of time and stopped by heating at 95° C. for 5 min. The reaction vial is transferred to a agitator for incubation at 80° C. for 5 min at 500 rpm. With a syringe preheated at 80° C., 1000 uL of head space is injected with sample fill speed at 100 uL/sec. GC/MS parameters for headspace analysis are the same as for liquid sample analysis.

Row | Molecule | 2,5-DCA product detected
32 | B1 | detected
33 | B2 | detected
34 | B3 | detected
35 | B4 | detected
